# Measured values as given in publication PMC5434896, “Inhibition of PDE5A1 guanosine cyclic monophosphate (cGMP) hydrolysing activity by sildenafil analogues that inhibit cellular cGMP efflux” (The Journal of Pharmacy and Pharmacology, 2017).
# Tested on: [H][C@@]12COP(=O)(O)O[C@@]1([H])[C@@H](O)[C@H](n1cnc3c(=O)[nH]c(N)nc31)O2
# Test: [3H]-cGMP hydrolysis, snake venom nucleotidase, anion-exchange separation
# Format: biochemical, Homo sapiens
# Conditions: [3H]-cGMP mixed with unlabelled cGMP […], […] MgCl2, pH […]
substance,measurement,value
PDE5A1 (Homo sapiens),Km,1.7 ± 0.4 µM
